{"source": "patent KR20120084755A", "about": "(dated 2012)", "binders": {"B1": {"name": "AM22 (antibody, V domains shown)", "VH": "QVQLVQSGAEVKKPGATVKVSCKISGHTLIKLSIHWVRQAPGKGLEWMGGYEGEVDEIFYAQKFQHRLTVIADTATDTVYMELGRLTSDDTAVYFCGTLGVTVTEAGLGIDDYWGQGTLVTVSS", "VL": "EIVLTQSPGTLSLSPGERATLSCRASQIVSRNHLAWYQQKPGQAPRLLIFGASSRATGIPVRFSGSGSGTDFTLTINGLAPEDFAVYYCLSSDSSIFTFGPGTKVDFK", "notes": "also called 재조합 AM22 mAb; AM22 항체"}}, "key": {"[1]": {"molecular_target": "T1, RSV 긴 균주(Long strain)로부터의 HIS 태그 포함 재조합 F 단백질 (Respiratory Syncytial Virus (RSV), Long …, UniProt P12568 26-524)", "T1 construct": "not shown: poly-HIS tag", "T1 sequence (P12568 26-524)": "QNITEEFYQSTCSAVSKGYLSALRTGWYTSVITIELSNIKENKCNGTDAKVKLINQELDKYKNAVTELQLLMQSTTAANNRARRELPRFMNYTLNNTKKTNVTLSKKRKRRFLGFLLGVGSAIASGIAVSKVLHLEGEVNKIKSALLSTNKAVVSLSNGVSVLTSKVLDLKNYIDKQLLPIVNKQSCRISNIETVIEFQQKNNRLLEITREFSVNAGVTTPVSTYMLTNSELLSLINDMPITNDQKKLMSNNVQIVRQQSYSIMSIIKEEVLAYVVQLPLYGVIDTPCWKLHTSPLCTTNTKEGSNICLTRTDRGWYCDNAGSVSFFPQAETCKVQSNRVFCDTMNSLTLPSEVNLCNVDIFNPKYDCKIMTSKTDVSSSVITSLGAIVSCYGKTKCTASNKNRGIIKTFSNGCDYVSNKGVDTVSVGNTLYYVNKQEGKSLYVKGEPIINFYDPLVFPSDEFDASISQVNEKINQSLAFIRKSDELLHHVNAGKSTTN", "assay": "direct ELISA, purified HIS-tagged F on Ni-NTA HisSorp plates (Fig. 3b right)"}, "[2]": {"molecular_target": "RSV A2 바이러스의 F 단백질 (Respiratory Syncytial Virus (RSV), …, UniProt P03420 26-574)", "sequence (P03420 26-574)": "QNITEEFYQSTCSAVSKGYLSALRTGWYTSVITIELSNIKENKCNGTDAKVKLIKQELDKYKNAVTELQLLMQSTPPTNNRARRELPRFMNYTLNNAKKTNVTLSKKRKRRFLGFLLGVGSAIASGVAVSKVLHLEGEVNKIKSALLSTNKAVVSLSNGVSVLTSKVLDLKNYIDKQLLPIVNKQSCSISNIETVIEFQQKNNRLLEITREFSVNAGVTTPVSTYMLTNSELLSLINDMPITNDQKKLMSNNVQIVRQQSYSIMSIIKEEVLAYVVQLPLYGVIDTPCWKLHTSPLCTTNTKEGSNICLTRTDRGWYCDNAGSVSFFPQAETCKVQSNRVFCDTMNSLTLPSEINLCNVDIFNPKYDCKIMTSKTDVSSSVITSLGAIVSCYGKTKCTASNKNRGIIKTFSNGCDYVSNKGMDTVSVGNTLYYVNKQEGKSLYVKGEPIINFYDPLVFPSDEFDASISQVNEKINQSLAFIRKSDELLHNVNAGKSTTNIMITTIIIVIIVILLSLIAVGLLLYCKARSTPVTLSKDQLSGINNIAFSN", "assay": "cell-based or functional assay"}}, "data": [{"binder": "B1", "values": [{"measurement": "binding result", "setting": "[1]", "value": "no binding"}, {"measurement": "IC50, RSV A2 neutralisation on HEp2 cells (standard TCID50 culture assay)", "setting": "[2]", "value": 1.15, "unit": "ng/㎖"}]}]}
